# Positions count from the first letter of the chain named. Names and notes keep the numbering of the source.
# T1: BCMA-Fc antigen (UniProt Q02223 1-54)
# T1 construct: Immobilized on a protein A chip
# T1 sequence (looked up): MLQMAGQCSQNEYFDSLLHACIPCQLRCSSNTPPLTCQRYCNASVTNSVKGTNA
# T2: BCMA antigen (UniProt Q02223 1-54, limits assumed)
# T2 construct: also called wild type BCMA
# T2 sequence (looked up): T1 sequence (looked up)
# B1: F6G scFv (germlined F6, parental clone of the ADD mutagenesis) (scFv)
# scFv: QVQLVQSGAEVKKPGASVKVSCKASGYTFTGYYMHWVRQAPGQGLEWMGWMNPNSGNTGYAQKFQGRVTMTRNTSISTAYMELSSLRSEDTAVYYCARAQWEPLDYWGQGTLVTVSSGGGGSGGGGSGGGASSYELTQPPSVSVSPGQTARITCSGDALPKKYTYWYQQKSGQAPVLVIYEDTKRPSGIPERFSGSSSGTMATLTISGAQVEDEADYYCLSTDPTGQESVFGGGTKLTVLGQP
# notes: scFv expressed in a cell free system from PCR fragments; also called parental F6G clone; germline F6G
# B2: F6G scFv with E to Y substitution in position 49 of CDRL2 (scFv)
# scFv: B1 scFv with E181Y
# notes: Cell free expressed scFv; also called E to Y substitution in position 49 of light CDRL2
# B3: F1G scFv CAR on iNKT cells (other)
# chain: QVQLVQSGAEVKKPGASVKVSCKASGYTFTSYGISWVRQAPGQGLEWMGWISAYNGNTYYAEDLQGRLTMTTDTSTSTAYMELRSLRSDDTAVYYCAREGSYYDSSGYYLPYWGQGTLVTVSSGGGGSGGGGSGGGASQSALTQPRSVSGSPGQSVTISCTGTSSDVGAYNYVSWYQQHPGKAPKLMIYDVTERPSGVPDRFSGSKSGNTASLTISGLQAEDEADYYCSSYTSSSIAFGGGTKLTVLGQPAAATTTPAPRPPTPAPTIASQPLSLRPEACRPAAGGAVHTRGLDFACDIYIWAPLAGTCGVLLLSLVITLYCKRGRKKLLYIFKQPFMRPVQTTQEEDGCSCRFPEEEEGGCELRVKFSRSADAPAYQQGQNQLYNELNLGRREEYDVLDKRRGRDPEMGGKPRRKNPQEGLYNELQKDKMAEAYSEIGMKGERRRGKGHDGLYQGLSTATKDTYDALHMQALPPR
# notes: Chimeric antigen receptor on iNKT cells with secreted IL-15; also called F1G-IL-15; F1G IL-15
# What was measured:
# BCMA-Fc antigen [1] = target: T1, BCMA-Fc antigen; experiment: flow cytometry, lentivirally transduced iNKT cells stained with BCMA-Fc and A647 anti-human IgG Fc; Donor 1, Transduced; Non transduced control 2.00
# Method: (§1) Purified and a-GalCer expanded iNKT cells from 2 donors were stimulated with TransAct (Miltenyi) and transduced with lentivirus (MOI 3) encoding for various 2nd Generation BCMA-CAR molecule and secreted IL-15. Constructs including F6G-Var2 IL-15, F6G variant 2 (no IL-15), F1G-IL-15, bb2121-IL-15, and CD19-CAR-IL-15 were tested. Cells were expanded for 10 to 12 days then transduced cells were co-cultured with K562 cells expressing BCMA at a ratio iNKT:K562 of 1:1. Cells were cultured and enriched with media supplemented with supporting cytokines IL-2 (100 IU/mL), IL-15 (100 UI/mL) and IL-21 (20 IU/mL). […]
# (§2) Transduced cells pre-co-culture and enriched cells post co-culture with K562-BCMA were analyzed for CAR expression by flow cytometry (FIG. 17). iNKT cells were incubated with a LIVE/DEAD (Biolegend) reagents to separate live from dead cells and then stained for cell surface markers BCMA-CAR or CD19-CAR, BUV395 CD8 (BD, clone RPA-T8) and BUV563 CD4 (BD, clone OKT4). BCMA-CAR expression was detected with an unconjugated, primary BCMA-Fc reagent (AcroBiosystems) while CD19 CAR expression was detected with an unconjugated, primary CD19-Fc reagent (AcroBiosystems). […]
# BCMA-Fc antigen [2] = target: T1, BCMA-Fc antigen; experiment: flow cytometry, lentivirally transduced iNKT cells stained with BCMA-Fc and A647 anti-human IgG Fc; Donor 2, Transduced; Non transduced control 0.74
# Method: as §1, §2
# BCMA-Fc antigen [3] = target: T1, BCMA-Fc antigen; experiment: flow cytometry, lentivirally transduced iNKT cells stained with BCMA-Fc and A647 anti-human IgG Fc; Donor 1, Enriched on K562-BCMA; Non transduced control 7.76
# Method: as §1, §2
# BCMA-Fc antigen [4] = target: T1, BCMA-Fc antigen; experiment: flow cytometry, lentivirally transduced iNKT cells stained with BCMA-Fc and A647 anti-human IgG Fc; Donor 2, Enriched on K562-BCMA; Non transduced control 1.34
# Method: as §1, §2
# BCMA antigen = target: T2, BCMA antigen; experiment: SPR (Biacore 4000), cell-free expressed scFv on BCMA antigen
# Source text: Further, a germlined version of F6 (F6G) was affinity matured by a combination of two methods: Accelerated Drug Discovery (ADD) approach and affinity maturation of by phage libraries. FIGS. 9A-9C describe the ADD approach. FIG. 9A is a schematic representation of the CDR positions undergone mutagenesis. Each amino acid in the heavy and light CDRs was substituted with 8 different amino acids; Tyr, Ser, Pro, Leu, his, Gly, Asp, Asn. Fragments containing single amino acids substitutions were generated by mutagenesis PCR. The PCR fragments were then used as a template to express the scFv in a cell free system. Affinity KD (M) values of mutant scFvs binding to BCMA antigen. Experiment was run in Biacore 4000. The dotted line indicates the binding of the parental F6G clone. KD below the dotted line means improvement in affinity. […] Individual Biacore sensorgrams for E to Y substitution in position 49 of CDRL2 are shown (FIG. 9C).
Molecule,% of cells in the CAR+ gate (BCMA-Fc antigen [1]) [%],% of cells in the CAR+ gate (BCMA-Fc antigen [2]) [%],% of cells in the CAR+ gate (BCMA-Fc antigen [3]) [%],% of cells in the CAR+ gate (BCMA-Fc antigen [4]) [%],binding result (BCMA antigen)
bb2121 CAR on iNKT cells (clinical benchmark),15.9,36.2,95.5,94.1,–
B1,–,–,–,–,binds
B2,–,–,–,–,binds
B3,20.7,20.9,31.4,93.1,–
